What was measured:
Test in all cases: holdup assay
Parameters in all cases: key: below the threshold = too weak to quantify, mostly under pKd 3.1 to 4
Details in all cases: plain residues with an end cap or a label only (N-terminal biotin on a linker: ttds)
GRID2IP_1, A4D2P6 = molecular target: GRID2IP_1, A4D2P6
PDLIM1, O00151 = molecular target: PDLIM1, O00151
GRIP1_7, Q9Y3R0 = molecular target: T1, GRIP1_7, Q9Y3R0
T1 sequence (Q9Y3R0 999-1096, limits assumed, looked up): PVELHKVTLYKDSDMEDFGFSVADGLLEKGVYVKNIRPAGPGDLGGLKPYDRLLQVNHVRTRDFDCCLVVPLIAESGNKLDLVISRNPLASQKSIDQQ

FRMPD4, Q14CM0 = molecular target: FRMPD4, Q14CM0
CARD11, Q9BXL7 = molecular target: T2, CARD11, Q9BXL7
T2 sequence (Q9BXL7 662-765, limits assumed, looked up): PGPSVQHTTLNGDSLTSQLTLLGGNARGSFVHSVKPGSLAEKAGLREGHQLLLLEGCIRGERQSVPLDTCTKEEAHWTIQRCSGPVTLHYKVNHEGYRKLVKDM

GRIP1_5, Q9Y3R0 = molecular target: T3, GRIP1_5, Q9Y3R0
T3 sequence (Q9Y3R0 568-668, limits assumed, looked up): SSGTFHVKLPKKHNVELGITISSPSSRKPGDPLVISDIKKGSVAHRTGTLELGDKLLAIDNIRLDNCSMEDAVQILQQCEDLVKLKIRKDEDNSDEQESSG

LDB3, O75112 = molecular target: LDB3, O75112
MPDZ_5, O75970 = molecular target: T4, MPDZ_5, O75970
T4 sequence (O75970 695-796, limits assumed, looked up): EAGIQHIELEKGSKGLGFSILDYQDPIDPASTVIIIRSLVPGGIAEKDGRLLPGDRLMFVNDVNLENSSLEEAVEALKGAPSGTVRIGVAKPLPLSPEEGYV

PARD3_3, Q8TEW0 = molecular target: PARD3_3, Q8TEW0
MAGI2_6, Q86UL8 = molecular target: MAGI2_6, Q86UL8
DLG4_1, P78352 = molecular target: DLG4_1, P78352
PDZRN3_1, Q9UPQ7 = molecular target: T5, PDZRN3_1, Q9UPQ7
T5 sequence (Q9UPQ7 244-349, limits assumed, looked up): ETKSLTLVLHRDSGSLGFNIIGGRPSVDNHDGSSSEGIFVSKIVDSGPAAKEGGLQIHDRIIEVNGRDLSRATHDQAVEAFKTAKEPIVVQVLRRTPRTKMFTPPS

PARD3B_1, Q8TEW8 = molecular target: T6, PARD3B_1, Q8TEW8
T6 sequence (Q8TEW8 196-299, limits assumed, looked up): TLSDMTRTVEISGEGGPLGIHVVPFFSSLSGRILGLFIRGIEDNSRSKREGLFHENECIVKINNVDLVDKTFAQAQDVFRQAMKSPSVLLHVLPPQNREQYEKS

LIN7A, O14910 = molecular target: T7, LIN7A, O14910
T7 sequence (O14910 103-200, limits assumed, looked up): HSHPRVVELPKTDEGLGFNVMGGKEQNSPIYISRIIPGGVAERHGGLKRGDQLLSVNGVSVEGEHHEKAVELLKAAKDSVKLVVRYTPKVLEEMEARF

MPDZ_12, O75970 = molecular target: T8, MPDZ_12, O75970
T8 sequence (O75970 1857-1958, limits assumed, looked up): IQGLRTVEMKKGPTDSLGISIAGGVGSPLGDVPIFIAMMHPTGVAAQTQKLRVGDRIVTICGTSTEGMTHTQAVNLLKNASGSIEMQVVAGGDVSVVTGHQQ

Inadl_3, Q8NI35 = molecular target: Inadl_3, Q8NI35
MAGI2_3, Q86UL8 = molecular target: MAGI2_3, Q86UL8
NHERF3_1, Q5T2W1 = molecular target: T9, NHERF3_1, Q5T2W1
T9 sequence (Q5T2W1 4-100, limits assumed, looked up): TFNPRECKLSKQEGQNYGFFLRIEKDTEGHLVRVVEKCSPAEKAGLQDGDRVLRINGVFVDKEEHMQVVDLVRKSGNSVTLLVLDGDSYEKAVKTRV

IL16_4, Q14005 = molecular target: IL16_4, Q14005
APBA2_1, Q99767 = molecular target: T10, APBA2_1, Q99767
T10 sequence (Q99767 563-664, limits assumed, looked up): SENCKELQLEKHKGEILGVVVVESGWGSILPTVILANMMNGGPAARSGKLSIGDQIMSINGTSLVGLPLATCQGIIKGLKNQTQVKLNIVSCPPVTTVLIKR

NOS1, P29475 = molecular target: NOS1, P29475
APBA3_1, O96018 = molecular target: T11, APBA3_1, O96018
T11 sequence (O96018 389-490, limits assumed, looked up): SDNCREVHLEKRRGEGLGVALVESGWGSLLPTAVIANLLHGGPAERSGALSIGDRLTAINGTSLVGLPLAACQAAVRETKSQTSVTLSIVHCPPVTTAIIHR

FRMPD1, Q5SYB0 = molecular target: T12, FRMPD1, Q5SYB0
T12 sequence (Q5SYB0 52-145, limits assumed, looked up): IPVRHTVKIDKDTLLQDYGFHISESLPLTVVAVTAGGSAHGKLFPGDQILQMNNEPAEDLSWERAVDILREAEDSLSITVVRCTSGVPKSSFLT

DLG3_1, Q92796 = molecular target: T13, DLG3_1, Q92796
T13 sequence (Q92796 125-227, limits assumed, looked up): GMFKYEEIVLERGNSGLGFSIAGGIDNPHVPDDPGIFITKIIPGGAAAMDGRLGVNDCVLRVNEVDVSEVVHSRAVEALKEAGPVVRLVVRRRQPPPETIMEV

Chain of LDB3, O75112 (O75112 1-94): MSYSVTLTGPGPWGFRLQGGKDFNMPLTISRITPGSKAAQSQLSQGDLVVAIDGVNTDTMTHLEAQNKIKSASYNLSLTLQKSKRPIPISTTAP
Chain of GRID2IP_1, A4D2P6 (A4D2P6 1-87): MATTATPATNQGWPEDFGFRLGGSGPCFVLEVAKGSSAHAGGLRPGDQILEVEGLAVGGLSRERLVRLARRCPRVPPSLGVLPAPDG
Chain of DLG4_1, P78352 (P78352 62-152): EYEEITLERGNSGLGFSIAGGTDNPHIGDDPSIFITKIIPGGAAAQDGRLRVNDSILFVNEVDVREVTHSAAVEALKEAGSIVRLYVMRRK
Chain of FRMPD4, Q14CM0 (Q14CM0 67-160): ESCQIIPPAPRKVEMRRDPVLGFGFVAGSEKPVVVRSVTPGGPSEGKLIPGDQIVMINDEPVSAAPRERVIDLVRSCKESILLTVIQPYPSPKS
Chain of NOS1, P29475 (P29475 9-101): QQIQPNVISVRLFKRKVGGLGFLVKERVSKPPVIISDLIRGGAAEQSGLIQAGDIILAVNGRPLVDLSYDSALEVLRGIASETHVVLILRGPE
Chain of PDLIM1, O00151 (O00151 1-87): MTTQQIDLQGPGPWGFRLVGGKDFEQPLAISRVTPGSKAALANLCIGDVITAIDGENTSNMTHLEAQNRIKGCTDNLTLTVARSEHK
Chain of MAGI2_6, Q86UL8 (Q86UL8 1141-1229): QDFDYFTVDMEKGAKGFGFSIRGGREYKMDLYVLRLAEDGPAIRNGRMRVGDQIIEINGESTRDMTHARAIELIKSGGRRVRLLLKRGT
Chain of IL16_4, Q14005 (Q14005 1229-1329): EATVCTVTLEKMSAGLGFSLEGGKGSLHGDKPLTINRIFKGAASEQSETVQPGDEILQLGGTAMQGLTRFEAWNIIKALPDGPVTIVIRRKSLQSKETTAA
Chain of PARD3_3, Q8TEW0 (Q8TEW0 582-685): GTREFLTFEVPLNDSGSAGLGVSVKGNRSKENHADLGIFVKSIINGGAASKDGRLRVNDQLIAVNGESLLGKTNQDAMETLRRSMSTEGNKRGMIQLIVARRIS
Chain of MAGI2_3, Q86UL8 (Q86UL8 600-682): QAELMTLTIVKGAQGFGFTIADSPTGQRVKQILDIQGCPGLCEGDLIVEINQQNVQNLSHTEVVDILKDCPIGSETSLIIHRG
Chain of Inadl_3, Q8NI35 (Q8NI35 359-469): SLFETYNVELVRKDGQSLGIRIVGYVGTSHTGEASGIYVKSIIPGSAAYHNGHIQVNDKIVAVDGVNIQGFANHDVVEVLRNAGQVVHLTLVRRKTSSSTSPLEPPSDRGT

Binder	pKd (GRID2IP_1, A4D2P6)	pKd (PDLIM1, O00151)	pKd (GRIP1_7, Q9Y3R0)	pKd (FRMPD4, Q14CM0)	pKd (CARD11, Q9BXL7)	pKd (GRIP1_5, Q9Y3R0)	pKd (LDB3, O75112)	pKd (MPDZ_5, O75970)	pKd (PARD3_3, Q8TEW0)	pKd (MAGI2_6, Q86UL8)	pKd (DLG4_1, P78352)	pKd (PDZRN3_1, Q9UPQ7)	pKd (PARD3B_1, Q8TEW8)	pKd (LIN7A, O14910)	pKd (MPDZ_12, O75970)	pKd (MAGI2_3, Q86UL8)	pKd (IL16_4, Q14005)	pKd (APBA2_1, Q99767)	pKd (NOS1, P29475)	pKd (APBA3_1, O96018)	also measured
PRVKPQRSKV [PPP1R13L, Q8WUF5]	below the threshold	below the threshold	below the threshold	below the threshold	below the threshold	3.65	below the threshold	below the threshold	below the threshold	below the threshold	3.54	below the threshold	below the threshold	below the threshold	below the threshold	below the threshold	below the threshold	below the threshold	below the threshold	below the threshold	pKd (Inadl_3, Q8NI35): below the threshold; pKd (NHERF3_1, Q5T2W1): below the threshold; pKd (FRMPD1, Q5SYB0): below the threshold; pKd (DLG3_1, Q92796): below the threshold
EMDRRPATVV [PLCB4, Q15147]	below the threshold	below the threshold	below the threshold	3.55	3.64	below the threshold	below the threshold	3.66	below the threshold	below the threshold	4.13	4.08	3.68	below the threshold	below the threshold	below the threshold	below the threshold	below the threshold	4.11	below the threshold	pKd (FRMPD1, Q5SYB0): 3.61; pKd (DLG3_1, Q92796): below the threshold
SKPTRRETEV [HPV35-E6, P27228]	below the threshold	below the threshold	below the threshold	below the threshold	below the threshold	below the threshold	below the threshold	below the threshold	below the threshold	3.49	5.09	4.89	below the threshold	below the threshold	below the threshold	below the threshold	below the threshold	below the threshold	3.74	below the threshold	pKd (Inadl_3, Q8NI35): below the threshold; pKd (NHERF3_1, Q5T2W1): 4.04; pKd (FRMPD1, Q5SYB0): below the threshold; pKd (DLG3_1, Q92796): 4.45

Reference: paper PMC9482650, “Quantitative fragmentomics allow affinity mapping of interactomes” (Nature Communications, 2022)
